Data taken from the supplement of paper PMC9170038.

System: MS2 coat protein
Test: apparent KD of MS2 coat protein; designed switch direction (-1 OFF switch, 1 ON switch): -1; higher = weaker reporter binding
Summary of the method: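 For each design, the apparent KD is the median over clusters of curves fitted to normalised cluster fluorescence. Clusters held RNA switches with common flanks, transcribed on Illumina chips by stalled E. coli RNA polymerase. These were titrated with SNAP-549-labelled MS2 coat protein, doubling from 0.7 or 1.5 nM to 3 µM, without input, with 200 uM small-molecule ligand, or with an oligonucleotide input.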

[1] = input ligand: microRNA oligo, concentration not stated
[2] = Eterna round: R95, input ligand: microRNA oligo, concentration not stated
[3] = Eterna round: R95, input ligand: FMN 200 uM
[4] = Eterna round: R95, input ligand: none

Sequence	apparent KD of MS2 coat protein [1]	apparent KD of MS2 coat protein (input ligand: FMN 200 uM)	apparent KD of MS2 coat protein (input ligand: none)	apparent KD of MS2 coat protein [2]	apparent KD of MS2 coat protein [3]	apparent KD of MS2 coat protein [4]
UAUAAAACAUAGGAUAUCGAAAUUAUCAUUUAACGAGAAGGAUGAACAUGAGGAUCACCCAUGUGGUAUCAUGG [Mat - Exclusion 6 - JL Mod - D10] (Eterna round: R96, puzzle: Exclusion 6)	0.328 µM					
CCCGCAGGUUUUUUGCUCGACAUGAGGAUCACCCAUGUUGCGUGGGUUGUGUGUGUGUGGUGCAUAUAUAUGGUCCU [-25.4, -48.9 kcal, A 14%] (Eterna round: R97, puzzle: Sensor, turn-off variant 1)		0.3 µM	0.35 µM			
GGUGUGCUAGGAUAUGCUUUGGGCUCGCUUACCUUCGUUUUACUUGAGGAUCACCCAAGUAGAAGGUGCUUGCC [salish99_ex2_r4_039] (Eterna round: R97, puzzle: Exclusion 2)		0.0131 µM	0.0124 µM			
ACAUGAGGAUCACCCAUGUCCGUCUGGUCUGUCUCGGCUGUCGAGGAUAUAGCUCGGUAUCCGCGCUAGAAGGCGGGAGUCGGA [Aenatbe mod 94] (Eterna round: R96, puzzle: Exclusion NG 3)	0.0242 µM	0.0243 µM	0.0323 µM			
GCUUGUAGAGGAUAUACGAGGGCCCGAGCGGAUAACACCGCACAUGAGGAUCACCCAUGUAGAAGGCUACCACC [Riquinza] (puzzle: Exclusion 2)				0.0208 µM		
AGCCACAGAGGAUAUACAUACAUCCAGUGGUUAAGAAUACAACAUGAGGAUCACCCAUGUAGAAGGCUGUGGCA [Omei Ex2 BD B10] (Eterna round: R97, puzzle: Exclusion 2)		0.394 µM	0.152 µM			
UAGUGGCAAGGAUAUACAGAGGAGAGGAUUGCAAGAGGUGGACAUGAGGAUCACCCAUGUAGAAGGUGCAGAGA [JR_Exclu2_Sub022] (puzzle: Exclusion 2)				0.252 µM		
CGUAUCUUUCACGUGAGUAGUGGGUGCAACAGGUGGGUUACAUGAGGAUCACCCAUGUACUCACUUGCUCGUCUUAU [Grok-var2-06] (puzzle: Sensor v3, turn-off variant 2)				0.0234 µM	0.038 µM	0.0343 µM
UUUUUCGUUUAAGCUUCGUACAUGAGGAUCACCCAUGUUUUUAGUUCUGUGUUGGUCAGUAUGGAAGUUCGUCUUAU [JR_SV3TOV1_Sub089] (puzzle: Sensor v3, turn-off variant 1)				0.166 µM	0.325 µM	0.371 µM
GAUUGAGAGCAGGAUAUCUUAGAAAUGUAUUAAAGAGAAGGGCUCACAUGAGGAUCACCCAUGUGGUCCUAGAU [JL Dibiri mod 16] (Eterna round: R96, puzzle: Exclusion 6)	0.0228 µM	0.306 µM	0.0263 µM			
ACCAUGGUUGAAGCUAACAUGAGGAUCACCCAUGUAAGCUGCUAGGAUAUGCAGAGGCCCAGAAAGCAGAAGGAGCAGUACUGC [Diatzagequ] (Eterna round: R96, puzzle: Exclusion NG 3)	0.0106 µM	0.0142 µM	0.0149 µM			
UAAUGUGCGAGAGGAUAUCGUGUACAAAGUACACGAGAAGGCUUCACAUGAGGAUCACCCAUGUAUCGAGGUGAAACACCUUGG [Omei Exc(NG)1 Bv2] (Eterna round: R96, puzzle: Exclusion NG 1)	0.285 µM	0.703 µM	0.318 µM			
GAGUGACAUGAGGAUCACCCAUGUGAGGAUAUCGGACGGACCUUGUUGGCUUCCGCCGCGAGAAGGCACCUCGG [Exclusion 1 V27] (puzzle: Exclusion 1)				0.0325 µM		
UUUUUUGUAGUGAGGAUAUCGUUGUGGAUGUGGAUCGAGAAGGCACAUGAGGAUCACCCAUGUUAGUUGUGGUU [JR_BMOE4_Sub084] (puzzle: Brourd's mod of Exclusion 4)				0.188 µM		
AGUUUUAAUGAGGAUAUCGUAUUGGAUAUAGUGCGAGAAGGCAUUACAUGAGGAUCACCCAUGUUUUGUUGGGA [JR_Ex6_Sub008] (Eterna round: R97, puzzle: Exclusion 6)		0.0581 µM	0.0245 µM			
GAAUGAGAGCAGGAUAUCUUAUAAAUGUAUGAAAGAGAAGGGCUCACAUGAGGAUCACCCAUGUGGUCCUAGAU [jl-ex6-4.76 jandersonlee mod] (Eterna round: R97, puzzle: Exclusion 6)		0.645 µM	0.0352 µM			
UAUAUAUAGUAAGGAUAUGUAUAUACUUUAUAAACAGAAGGUACUGACAUGAGGAUCACCCAUGUUUUAGUGUGGGCAUGUAGA [JMF's solution 57] (Eterna round: R96, puzzle: Exclusion NG 1)	0.0571 µM					
AGGUGACAUGAGGAUCACCCAUGUAAGGAUAUACGGUUAGUGGAGAGAGGGAAGAGAGGUAGAAGGUACGGAGC [JR_Exclu1_Sub058] (puzzle: Exclusion 1)				0.227 µM	0.24 µM	0.316 µM

Sequence	apparent KD of MS2 coat protein [1]	apparent KD of MS2 coat protein (input ligand: FMN 200 uM)	apparent KD of MS2 coat protein (input ligand: none)	apparent KD of MS2 coat protein [2]	apparent KD of MS2 coat protein [3]	apparent KD of MS2 coat protein [4]
GUAGAGUGAGGAUAUACGAGAUCGAUAGAUCGGCGAUCCAAACAUGAGGAUCACCCAUGUAGAAGGCACUCUAC [Mat - Exclusion 2 - Eli Mod - D6] (Eterna round: R97, puzzle: Exclusion 2)		0.455 µM	0.0904 µM			
AAGUACCGUCACGAUAGUGAUGGUACAACAGGCAGUGAAACAUGAGGAUCACCCAUGUCCUCAAUUGCUCGUCUUAU [Sensor 3 - 77] (puzzle: Sensor v3, turn-off variant 2)				0.192 µM	0.0776 µM	0.0987 µM
UCCUUACUGGUCAGGAUAUACAUUCGCGAGUGGGUGUAGAAGGGACAUGAGGAUCACCCAUGUACGUUACAUCC [alecazam54f] (Eterna round: R97, puzzle: Brourd's mod of Exclusion 4)		0.0183 µM	0.0205 µM			
UACAUGAGGAUCACCCAUGUUUUGUCGUGUAUGGUAUUUAUCUAGGAUAUCAAUUGAUUAAUUUAUGAGAAGGAGAAUAUUAAU [JMF's solution 60] (Eterna round: R96, puzzle: Exclusion NG 3)	0.0391 µM	0.0399 µM	0.0344 µM			
CUCCAGACAGGAUAUACGAGGCUGUGUUCCCAUUAUAGGACACAUGAGGAUCACCCAUGUAGAAGGGUCAAUGG [Eternabot (L1) Solution 28] (Eterna round: R97, puzzle: Exclusion 2)		0.286 µM	0.742 µM			
GAGGUGUAAGGAUAUAGCUAUAGGCUAACCGGGACCCAUAGCUAGAAGGUACAUGAGGAUCACCCAUGUUUGCU [Eternabot (L1) Solution 99] (Eterna round: R97, puzzle: Exclusion 4)		0.0349 µM	0.0226 µM			
CCGGGUCACGUAAGGAUAUCACGCGCAGACGCUAGUGAGAAGGUACAUGAGGAUCACCCAUGUUCCAUUCGCAG [BmEX4 C.5] (Eterna round: R97, puzzle: Brourd's mod of Exclusion 4)		0.0171 µM	0.0138 µM			
UAUUAUUGCAAGGAUAUGCUUUUUAUUUCUUUUGCAGAAGGUGCAACAUGAGGAUCACCCAUGUUUCCGGGUAU [JR_E6_Sub033] (puzzle: Exclusion 6)				0.0204 µM		
GAUCCACAUGAGGAUCACCCAUGUGAGGAUAUGAUACUAUGUACUUCGGUACAUAGUAUCAGAAGGCACGGAUC [Ex1-3: 54] (puzzle: Exclusion 1)				0.0246 µM		
GAUAGAGAGCAGGAUAUCUUGGAUAAGUAUAGUAGAGAAGGGCUCACAUGAGGAUCACCCAUGUGGUCCAAGAU [JL Dibiri mod 12] (puzzle: Exclusion 6)				0.0148 µM	0.028 µM	0.0158 µM
CAGUACGGAGGAUAUACAUGAGGAUCACCCAUGUGAGAGAUACUAGUGAGGUCGAUUAGUAGAAGGCUGUACUG [Mat X3R4 m6] (Eterna round: R97, puzzle: Exclusion 3)		0.501 µM	0.0397 µM			
GUGUGCACGCUGCGAUCCUACAUGAGGAUCACCCAUGUGGUCUGGUGGCGUGGGUCACCGGACUUGGCUCGUCUUGA [salish99_S_TOV1_R5_069] (Eterna round: R97, puzzle: Sensor, turn-off variant 1)		0.121 µM	0.118 µM			
AGGUAGUCAGGAUAUUAAGAGUAGCGGGAUAACGCUACGAGUGAGAAGGGACAUGAGGAUCACCCAUGUUUAUU [JR_Ex4_Sub070] (Eterna round: R97, puzzle: Exclusion 4)		0.023 µM	0.0248 µM			
AAUUAAUUAAUUAAUUAAUACAUGAGGAUCACCCAUGUAAUUUAAGAUCCUUAUACAAGCUUUGAUCUCGUAAUUAA [Stov1/4-A1] (Eterna round: R97, puzzle: Sensor, turn-off variant 1)		0.0989 µM	0.0938 µM			
UAUAAAACAUAGGAUAUCGAAAUUAUCAUUUAACGAGAAGGAUGAACAUGAGGAUCACCCAUGUGGUAUCAUGG [Mat - Exclusion 6 - JL Mod - D10] (puzzle: Exclusion 6)				0.425 µM	0.37 µM	0.238 µM
AUGGGUACUUUCGGAGCGACAUGAGGAUCACCCAUGUAUAUUGAGGAUAUCCACUGCUAAGGACGGGAGAAGGCAGUGUACUGU [Ex NG3 #82] (Eterna round: R96, puzzle: Exclusion NG 3)	0.0429 µM	0.0733 µM	0.0542 µM			
ACGUGAGCUGAGGAUAUGCCACUAGCCCGCCUGGCAGAAGGCAGUACAUGAGGAUCACCCAUGUGCGUUGGGUG [Leintice] (Eterna round: R97, puzzle: Exclusion 6)		0.334 µM	0.335 µM			
